# US20240026407A1, “MODIFICATION OF SAPONINS” (GLAXOSMITHKLINE BIOLOGICALS SA, priority 2020, published 2024)
# B1: 133 (protein, listed as Aquimixticola soesokkakensis)
# chain: MTDSTATPPDPIAAKLTFARGRDYWTTQAAPEIGLRALRFADGPHGLRVQDDENPDHLGLERSAPATCFPPAVTLASSWDAALIEEVGAALGREARAAGVDVVLGPGLNLKRSPLCGRNFEYYSEDPMLSGLLAGASARGIQSVGVGACLKHFAANSQEGDRNRISADIDERSLRELYLRNFQLALEASGAWSIMTSYNRINGLHASQDPWLLTQVLREEWGFDGLVISDWGGVYDPVAALKAGMDLRMPGGALDDRLIAAHARGEIAEGDLDRVIANTTRLAERTRPRDTDVPPDVEAHHALVRRAAAESSVLLKNDGVLPLDPARYPKVAILGELARTPRIQGSGSSRVHPRRVVAPLDVLRERLAQSGAQVAFAPAYGLQNGPADAALITEALQVARDADIVLLFSGLTDAAEAEGSDRTHIDLPDQQLTLLAALADCDTPLVVSLANGAVVRSTQWRDTAQAIVEFWLSGQAHGETVADVLLGDVPPAGRLAQTIPRRLQDTPAFLDFPGEHRHVRHSEGLHIGYRWYDARDLAVDYPFGHGLSYTSFDYEELEIDVRASDDDIAFVARLTLRNSGARAGSEVVQLYASDPSTAYQTPPRELRGWQKVHLEAGESCAVSIPVKRAHLGHWHSGLKRWVFAGGPMTLHVGASSRDLRLTCETELHGEALPVVLTPWSLFGEWMQHPVMGPRIEALFASRGGVKGRAGDLLSDPAGRNTVYINPLAMLAQFPGVPLDQSDLETLCAEAAALA
# B2: 116 (protein, listed as Streptomyces netropsis)
# chain: MPDDPVDVLDLDTKARLLSGQDMWSLPAVPRIGLRSIVMSDGPVGVRGVRWTADDPSLALPSPTALAATWDPALARRVGRLLAAEARRKGVHVLLAPTVNLHRSPLGGRHFEAYSEDPYLTARIGTGYVRGVQDGGVAAVVKHFVANDAETERFTVNNKVSARALRELYLAPFEAIVKDARPWGVMAAYNQVNGVTMTEHGHLQNDVLRGEWGFDGIVVSDWLAARDTVRAALGGLDVAMPGPVTVYGPALAAAVRAGDVPESVVDDAVRRVLRLADRVGALGEATRARPSAPDGRALAREVAARSFVLVRNAPVRGAPALPLDPAPGLRVALLGGAARDARILGGGSAQVFPARVVSPLDGLRAALPEGAVTYAVGAEPGDELLPAGAGFTLRAVCRDAAGRMLGEERMPSGMVQWLGDLPAGVGYEALRTVELTGTFTPRESGPHVFGTKGVGAFRLVVGGRTLFDGEQGADHADPFEAFLGSPVERGRVVLAAGTAVEVSLTCVVAEPDGAPIEAVGFCLLHREPERDAEELLAEAVAVAASADAAVVVVATTERVESEGFDRTTLALPGRQDELVARVAAVSPRTVVVVNSGSPVELPWRDDVAAVLLGWFPGQEAGGALADVLLGGCEPGGRLPTTWPVRLADAPVTRVAPVGGELAYAEGLFIGYRAWEKARATPAYAFGHGLGYTDWSYETLDMGGTGTARVRVRNTGSRPGREVVQVYLAVPPGDRAGRPVRRLAGFASVEAGPGETVEAVVALDPRAFEVWDDEAAGWRRIPGTYTAEAGRSIADRRLTAPVEVA
# Assays:
# Format in all cases: biochemical, Quillaja saponaria
# [1] = Experiment 4-2: screening of glucosidases for deglycosylation with purified QS-18 (1 mg/ml) at pH 6 and 30 deg C; details: pH 6, 30 degC, 18 hrs, clarified lysate, LCMS/MS
# Method in brief: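 Clarified lysates of glucosidase-expressing cells in 100 mM potassium phosphate pH 6 were incubated 18 h at 30 °C with QS-18 at 1 mg/ml final. Reactions quenched with MeCN; deglycosylation activity determined by LC-MS/MS.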
# [2] = Experiment 4-4: screening of glucosidases for deglycosylation of QS-18 in crude bark extract (1 in 20 dilution) to QS-21; details: CBE 1 in 20 dilution, pH 6, 25 degC, 18 hours; % conversion of Middle Peak by UV HPLC
# Protocol: Lysates were prepared as in Experiment 4-2.
# Crude bark extract (CBE) was adjusted to pH 6 by dropwise addition of 2M NaOH with stirring. 25 uL of clarified lysate was transferred to a reaction plate, 22.5 ul of 100 mM potassium phosphate buffer pH 6 was added, 2.5 ul CBE at pH 6 was added. Reaction plates were sealed, incubated at 25 degC with shaking for 18 hours, then quenched by addition of 50 uL acetonitrile (MeCN). Quenched reaction plates were re-sealed and incubated at 20 degC with shaking for 10 min. The reaction plates were centrifuged (10 min, 4 degC) and analysed by UV HPLC with the method below:
# Three key peaks of interest are apparent using this chromatography: Left Peak (retention time approximately 2.30-2.35 min) comprising mainly QS-17 family components; Middle Peak (retention time approximately 2.37-2.42 min) comprising mainly QS-18 family components and desglucosyl-QS-17 family components; and Right Peak (retention time approximately 2.44-2.50 min) comprising mainly QS-21 family components. Peak identity was supported by MS/MS.
# Enzyme activity is calculated as the % conversion of the Middle Peak present in the crude bark extract: […]
# [3] = Experiment 4-1: screening of glucosidases for deglycosylation with purified QS-18 (0.04 mg/ml) at pH 7.5 and room temperature; details: pH 7.5, room temperature, 20 h, clarified E. coli lysate, QS-18 2150 to QS-21 1988 by LCMS/MS
# Method in brief: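 Candidate glucosidases expressed in E. coli BL21(DE3) (pET24b+, autoinduction, 20 °C for 20 h); clarified lysates in 100 mM potassium phosphate pH 7.5 incubated with QS-18 (0.04 mg/ml final) 20 h at room temperature. Quenched with MeCN, analysed by LC-MS/MS for % conversion; hits >3 S.D. above negative control.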
Molecule,Expt 4-2 % conv [1],Expt 4-4 % conv [2],Expt 4-1 % conv [3]
B1,0.4%,<3%,3.7%
B2,0.5%,<3%,4.7%
